These are literature values, as cited in article PMC7379096 (ACS Omega, 2020).

The conditions of the data set: stated in the method section, no reference given.

With Immunoglobulin G [IgG], the pI was 5.5–8.3.
